Assay results published in publication PMC11605450, “Azotobacter vinelandii scaffold protein NifU transfers iron to NifQ as part of the iron-molybdenum cofactor biosynthesis pathway for nitrogenase” (The Journal of Biological Chemistry, 2024).

Legend:
[1] = molecular target: apo-NifQH (A. vinelandii NifQ, C-terminal 6xHis, without [Fe-S] cluster) (A. vinelandii) (UniProt P11068); experiment: pull-down; apo-NifQH, AS-NifUS and SNifS (10 nmol of each) incubated together 5 min, anaerobic, buffer W (100 mM Tris-HCl pH 8.0, 150 mM NaCl, 10% glycerol); Ni-NTA agarose column, washes with 5 and 20 mM imidazole, elution with 150 mM imidazole; immunoblots
[2] = molecular target: R-NifUS (A. vinelandii NifU, C-terminal Strep-tag, with in vitro reconstituted [Fe-S] clusters) (A. vinelandii) (UniProt P05340)
Chain of R-NifUS (A. vinelandii NifU, C-terminal Strep-tag, with in vitro reconstituted [Fe-S] clusters) (A. vinelandii) (P05340 whole entry): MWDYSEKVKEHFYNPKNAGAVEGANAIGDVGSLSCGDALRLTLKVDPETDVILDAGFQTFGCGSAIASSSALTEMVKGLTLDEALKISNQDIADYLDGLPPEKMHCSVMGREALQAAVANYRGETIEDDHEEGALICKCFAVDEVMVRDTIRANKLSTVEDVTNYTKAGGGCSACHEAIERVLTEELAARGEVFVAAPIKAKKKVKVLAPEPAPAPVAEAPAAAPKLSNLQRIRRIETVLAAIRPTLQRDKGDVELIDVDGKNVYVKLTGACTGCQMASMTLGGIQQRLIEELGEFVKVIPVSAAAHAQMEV

[3] = molecular target: T1, apo-NifQH (A. vinelandii NifQ, C-terminal 6xHis, without [Fe-S] cluster) (A. vinelandii, UniProt P11068 1-195); experiment: pull-down; 10 nmol of Strep-tagged bait (AS-NifUS or R-IscUS) immobilised on a Streptactin-XT column in anaerobic buffer A (50 mM Tris-HCl pH 8.0, 100 mM NaCl, 10% glycerol), 10 nmol NifQH loaded onto the charged column, washed, eluted with 50 mM biotin; conditions: both partners purified
T1 construct: Purified aerobically to destroy the [Fe-S] clusters; source: E. coli BL21 (DE3), purified (Ni-NTA, aerobic conditions); not shown: His6, C-terminal, kept
T1 sequence (looked up): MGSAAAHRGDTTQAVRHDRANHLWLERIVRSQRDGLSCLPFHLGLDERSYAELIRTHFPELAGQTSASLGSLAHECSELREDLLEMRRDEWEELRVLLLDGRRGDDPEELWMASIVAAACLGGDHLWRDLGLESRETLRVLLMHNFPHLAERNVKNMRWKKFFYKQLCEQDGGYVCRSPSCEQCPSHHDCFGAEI

AS-NifUS (as-isolated A. vinelandii NifU, C-terminal Strep-tag) (from UniProt P05340 1-312) (natural protein)
percent of the total protein co-eluted [1]: 10%

apo-NifQH (A. vinelandii NifQ, C-terminal 6xHis, without [Fe-S] cluster) (from UniProt P11068 1-195) (natural protein)
iron content per monomer of NifQH in the flowthrough of a Strep-tactin column after 5 min incubation of apo-NifQH with R-NifUS (Fe per NifQH monomer (molar ratio)) [2]: 1

B1: R-IscUS (A. vinelandii IscU, Strep-tag, with in vitro reconstituted [Fe-S] clusters) (natural protein, UniProt O31270 1-128, looked up)
chain: MAYSDKVIDHYENPRNVGKLDAQDPDVGTGMVGAPACGDVMRLQIKVNEQGIIEDAKFKTYGCGSAIASSSLATEWMKGRTLEEAETIKNTQIAEELALPPVKIHCSVLAEDAIKAAVRDYKHKKGLV
notes: also called R-SIscU; source: E. coli BL21 (DE3), purified (Strep-Tactin XT, anaerobic), [Fe-S] clusters reconstituted in vitro; not shown: Strep-tag, C-terminal, kept
binding result [3]: binds
